The target of experiment [1] is T1, PKC-ε (endogenous, human cell extracts) (human, UniProt Q02156 1-737).
T1 construct: Two bands on the blot, said to be alternate splicing variants; also called PKC-epsilon; PKC-ε Band 1
T1 sequence (looked up): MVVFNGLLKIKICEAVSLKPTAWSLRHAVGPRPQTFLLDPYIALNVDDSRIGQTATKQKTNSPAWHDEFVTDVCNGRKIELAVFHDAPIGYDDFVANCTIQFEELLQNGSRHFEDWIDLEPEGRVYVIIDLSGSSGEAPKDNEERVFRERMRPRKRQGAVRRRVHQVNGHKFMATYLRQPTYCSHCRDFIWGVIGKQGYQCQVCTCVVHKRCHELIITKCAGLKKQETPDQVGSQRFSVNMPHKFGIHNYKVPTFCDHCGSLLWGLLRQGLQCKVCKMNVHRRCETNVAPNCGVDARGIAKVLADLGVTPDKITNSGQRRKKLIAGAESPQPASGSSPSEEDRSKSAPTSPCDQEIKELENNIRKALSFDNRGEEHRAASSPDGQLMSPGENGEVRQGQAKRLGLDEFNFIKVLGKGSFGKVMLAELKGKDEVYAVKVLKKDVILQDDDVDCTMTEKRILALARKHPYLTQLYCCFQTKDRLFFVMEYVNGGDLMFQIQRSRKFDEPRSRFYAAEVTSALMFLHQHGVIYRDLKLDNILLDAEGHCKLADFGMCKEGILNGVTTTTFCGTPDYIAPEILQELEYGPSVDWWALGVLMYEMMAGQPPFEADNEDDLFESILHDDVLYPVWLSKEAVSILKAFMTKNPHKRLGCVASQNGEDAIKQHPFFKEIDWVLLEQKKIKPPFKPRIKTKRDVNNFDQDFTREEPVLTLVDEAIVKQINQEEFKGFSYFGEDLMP
Nature of the experiment: Protocol B blot competition, IMR-32 extract, competitor anti-PKC-ε Ab, Band 1; PRE 100 µg. The protocol: (§1) The ability of the peptides PRE 2 and PRE 3 (see Table 3) to interfere with the binding of a PKC-α-specific polyclonal antibody (Santa Cruz Biotechnology, Inc.) to PKC-α was determined using a modified version of the protocol outlined above in which the test peptide was added directly to the cell extract prior to electrophoresis at a concentration of either 5× or 15× the concentration of the protein applied to each well of the gel for the Western blots (20 μg).
(§2) Peptides PRE 2, PRE 3 and PRE 4 (see Table 3) were tested for their ability to interfere with the binding of isoform-specific polyclonal antibodies (Santa Cruz Biotechnology, Inc.) to PKC-ε using the general protocol described in Example 3. Two bands, representing alternate splicing variants of PKC-ε, were identified on the Western blot using this anti-PKC-ε antibody.

The target in experiment [2] is T1, PKC-ε (endogenous, human cell extracts). Nature of the experiment: Protocol B blot competition, IMR-32 extract, competitor anti-PKC-ε Ab, Band 2; PRE 20 µg. Here is the method: as §1, §2
Experiment [3] has the same target. Nature of the experiment: Protocol B blot competition, IMR-32 extract, competitor anti-PKC-ε Ab, Band 1; PRE 50 µg. Here is the method:
as §1, §2

For experiment [4] the target is unchanged. Nature of the experiment: Protocol B blot competition, IMR-32 extract, competitor anti-PKC-ε Ab, Band 1; PRE 20 µg. Here is the method:
as §1, §2

Experiment [5] has as its target T2, PKC-ε (purified isoform) (Homo sapiens (Human), UniProt Q02156 1-737).
T2 construct: also called PKC-epsilon; PKCepsilon
T2 sequence: T1 sequence (looked up)
Nature of the experiment: summary grade, purified isoform ELISA. (In an ELISA, binding on a coated surface is turned into a signal by an enzyme label.)

Experiment [6] has as its target T3, PKC-βI (purified isoform) (Homo sapiens (Human), UniProt P05771 2-671).
T3 construct: also called PKC-beta I
Nature of the experiment: summary grade, purified isoform ELISA.

The target of experiment [7] is T4, PKC-βII (purified isoform) (Homo sapiens (Human), UniProt P05771 2-621).
T4 construct: also called PKC-beta II
Nature of the experiment: summary grade, purified isoform ELISA.

Experiment [8] addresses T5, PKC-ζ (endogenous, human cell extracts) (human, UniProt Q05513 1-592).
T5 construct: also called PKC-zeta
T5 sequence (looked up): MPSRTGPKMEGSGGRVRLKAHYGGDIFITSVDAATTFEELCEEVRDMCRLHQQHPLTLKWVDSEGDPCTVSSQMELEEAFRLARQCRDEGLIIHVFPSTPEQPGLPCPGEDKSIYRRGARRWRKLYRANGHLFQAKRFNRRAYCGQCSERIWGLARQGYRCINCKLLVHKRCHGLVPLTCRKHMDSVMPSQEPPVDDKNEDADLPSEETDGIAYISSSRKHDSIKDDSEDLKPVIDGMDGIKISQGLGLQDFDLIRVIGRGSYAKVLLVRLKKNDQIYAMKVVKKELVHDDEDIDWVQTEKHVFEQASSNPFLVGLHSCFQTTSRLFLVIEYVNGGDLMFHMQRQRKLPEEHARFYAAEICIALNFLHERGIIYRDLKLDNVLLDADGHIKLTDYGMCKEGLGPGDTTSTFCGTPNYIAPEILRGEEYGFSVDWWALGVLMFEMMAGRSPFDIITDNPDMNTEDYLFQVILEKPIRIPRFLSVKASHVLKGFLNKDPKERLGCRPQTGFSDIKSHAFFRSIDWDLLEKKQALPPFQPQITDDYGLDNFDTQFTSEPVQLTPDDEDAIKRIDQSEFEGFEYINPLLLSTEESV
Nature of the experiment: Western-blot competition on cell extracts against the anti-PKC-ζ primary antibody; band densitometry. The protocol:
Binding efficiency and specificity of the peptides PRE 2, 3, 4, 5, 6, 7, 8, 9, 10, 11, 12 and 13 (see Table 3) was also tested using cytoplasmic extracts from different cell lines expressing appropriate PKC isoforms as described for Example 1. Briefly, the protein cytoplasmic extracts were separated by electrophoresis and transferred onto nitrocellulose membranes by standard Western blotting procedures. The bands on the Western blots were detected with matching primary antibodies and alkaline phosphatase conjugated secondary antibody. The bands were then scanned and the relative density measurements obtained.
This procedure to assess the binding characteristics of the PREs is based on competition binding of the PRE with the primary anti-isoform PKC specific antibodies. The lower the measured band density, the greater the binding of the PRE to the PKC isoform. The PREs were added at 10 and 20 times (10×, 20×) the primary antibody concentration, according to classical competition between antigenic peptide and primary antibody. The following cell lines (obtained from the ATCC) were used: H661—NCI human lung carcinoma NSCLC; MDAMB231—human highly invasive breast cancer cell line from pleural effusion; LS180—human colon adenocarcinoma; LnCAP—human prostate adenocarcinoma; CCD16Lu—human lung fibroblasts; Du145—human prostate carcinoma brain metastasis, and T24—human bladder carcinoma.

T3 sequence (P05771 2-671 limits assumed): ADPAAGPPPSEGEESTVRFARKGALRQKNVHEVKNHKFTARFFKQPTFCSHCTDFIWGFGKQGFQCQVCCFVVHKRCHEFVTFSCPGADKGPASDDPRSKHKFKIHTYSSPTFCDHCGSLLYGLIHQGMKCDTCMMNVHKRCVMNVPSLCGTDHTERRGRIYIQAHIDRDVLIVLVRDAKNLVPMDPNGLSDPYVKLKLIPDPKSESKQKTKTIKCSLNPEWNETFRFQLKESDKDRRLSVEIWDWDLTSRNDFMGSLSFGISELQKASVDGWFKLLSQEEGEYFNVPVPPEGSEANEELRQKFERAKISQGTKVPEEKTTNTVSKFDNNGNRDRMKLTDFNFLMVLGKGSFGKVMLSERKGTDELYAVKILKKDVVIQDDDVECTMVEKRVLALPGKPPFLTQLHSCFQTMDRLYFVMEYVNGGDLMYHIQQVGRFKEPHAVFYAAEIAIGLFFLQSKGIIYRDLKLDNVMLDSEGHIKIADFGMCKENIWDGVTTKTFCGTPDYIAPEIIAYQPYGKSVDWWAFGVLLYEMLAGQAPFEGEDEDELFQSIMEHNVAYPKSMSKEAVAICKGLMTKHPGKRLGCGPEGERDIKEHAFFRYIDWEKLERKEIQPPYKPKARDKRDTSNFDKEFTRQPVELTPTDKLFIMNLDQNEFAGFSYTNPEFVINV
T4 sequence (P05771 other isoform, or with tags, fused parts or gaps limits assumed): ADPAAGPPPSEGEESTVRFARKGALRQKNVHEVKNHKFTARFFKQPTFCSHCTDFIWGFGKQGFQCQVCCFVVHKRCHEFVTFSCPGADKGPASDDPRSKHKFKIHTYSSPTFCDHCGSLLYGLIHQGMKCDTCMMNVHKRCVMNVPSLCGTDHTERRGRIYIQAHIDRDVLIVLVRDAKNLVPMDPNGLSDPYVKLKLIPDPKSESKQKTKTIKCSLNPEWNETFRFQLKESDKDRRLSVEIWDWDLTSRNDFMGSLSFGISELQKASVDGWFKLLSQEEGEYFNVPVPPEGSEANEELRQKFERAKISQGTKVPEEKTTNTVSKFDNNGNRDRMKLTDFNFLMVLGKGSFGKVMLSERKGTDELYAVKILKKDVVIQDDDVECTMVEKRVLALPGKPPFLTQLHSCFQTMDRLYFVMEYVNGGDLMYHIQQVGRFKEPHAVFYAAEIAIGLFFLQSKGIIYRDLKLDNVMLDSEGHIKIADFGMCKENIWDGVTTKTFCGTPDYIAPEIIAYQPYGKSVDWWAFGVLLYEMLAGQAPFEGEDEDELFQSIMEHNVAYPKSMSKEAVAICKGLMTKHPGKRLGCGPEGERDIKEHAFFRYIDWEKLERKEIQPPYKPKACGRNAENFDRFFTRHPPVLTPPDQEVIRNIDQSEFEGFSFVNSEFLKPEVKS

B1: PRE 4 (peptide)
peptide: Ac-KDAQNLIGISI-NH2
notes: Synthetic peptide; also called peptide PRE 4
For B1, the band intensity in experiment [1] turned out to be 0; in experiment [2] it was 153; in experiment [3], 0; in experiment [4] it was 184. The “inhibition (%)” value in experiment [1] was determined as 100%; in experiment [2], 46.6%; in experiment [3] it was 100%; in experiment [4], 42.9%. The “relative intensity (%)” value was found to be 0% in experiment [1], 53.3% in experiment [2], 0% in experiment [3] and 57.1% in experiment [4].

B2: PRE 12 (peptide)
peptide: Ac-KDAQNLI-NH2
notes: Synthetic peptide; also called peptide PRE 12; Ac-KDAQNLI-NH2
B2: the binding result in experiment [5] and in experiment [6] was “no binding (tested: 200 µM)” throughout.

B3: PRE 13 (peptide)
peptide: Ac-RDAQNLI-NH2
notes: Synthetic peptide; also called peptide PRE 13; Ac-RDAQNLI-NH2
B3: the binding result in experiment [5] was “no binding (tested: 200 µM)”; in experiment [7], “no binding (tested: 200 µM)”; in experiment [6] it was “no binding (tested: 200 µM)”; in experiment [8] it was “no binding (tested: 20X the primary antibody concentration)”.

B4: PRE 3 (peptide)
peptide: Ac-AKGIQEVKGGDAQNLIGISI-NH2
notes: Synthetic peptide; also called peptide PRE 3
B4: the band intensity in experiment [1] was found to be 0; in experiment [2], 0; in experiment [3], 0; in experiment [4], 5.12. The “inhibition (%)” value in experiment [1] worked out at 100%; in experiment [2] it was 100%; in experiment [3], 100%; in experiment [4] it was 99%. Also, the “relative intensity (%)” value worked out at 0% in experiment [1], 0% in experiment [2], 0% in experiment [3] and 0.12% in experiment [4].

B5: PRE 6 (peptide)
peptide: Ac-KDANQLIGISI-NH2
notes: Synthetic peptide; also called peptide PRE 6
On to B5, for which the binding result in experiment [7] is on record as “no binding (tested: 200 µM)”; in experiment [8], “no binding (tested: 20X the primary antibody concentration)”.

These data come from patent US20100041597A1 (published 2010).
